The source of these data is publication PMC6760448, “The DRS–AIMP2–EPRS subcomplex acts as a pivot in the multi-tRNA synthetase complex” (IUCrJ, 2019).

Data set [1] has as its target T1, N-terminally truncated human AIMP2 splice variant lacking exon 2 (residues Ser34–Gln45 and Asp115–Lys320) (human, UniProt Q13155 34-45; Q13155 115-320).
T1 construct: human AIMP2, residues Asp115–Lys320 (exons 3 and 4, GST domain); joined directly to Gln45 as in the splice variant AIMP2-DX2 that lacks exon 2; also called AIMP2-DX2-S34; AIMP2GST; source: E. coli BL21-CodonPlus (DE3)-RIPL; culture pooled with those of the partners, co-purified (HiTrap Chelating HP, Superdex 200); not shown: His6, C-terminal, kept
T1 sequence (looked up): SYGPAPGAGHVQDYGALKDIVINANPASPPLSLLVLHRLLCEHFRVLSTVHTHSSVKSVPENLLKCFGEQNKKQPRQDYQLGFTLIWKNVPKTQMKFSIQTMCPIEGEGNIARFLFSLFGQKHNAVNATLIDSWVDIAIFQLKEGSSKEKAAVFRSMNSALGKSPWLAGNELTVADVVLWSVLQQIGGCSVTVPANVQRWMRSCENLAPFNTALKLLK
The experiment in a line: SEC; separately transformed strains pooled in one culture, proteins met on cell disruption by sonication; His6 affinity (HiTrap Chelating HP), then HiLoad 16/600 Superdex 200 pg in 50 mM HEPES–NaOH pH 8.0, 200 mM NaCl, 5 mM DTT, 1% glycerol; SDS–PAGE of the highest peak. The settings on record: partners not purified.

Data set [2] deals with the molecule itself. Briefly: crystal structure; DRS–AIMP2-DX2-S34–EPRSGST (DA2E) subcomplex, 3.6 Å, space group P6_(1), two subcomplexes in the asymmetric unit; crystals at 22°C from sodium/potassium phosphate, 0.1 M CAPS pH 10.5, lithium sulfate.

B1: C-terminally truncated human EPRSGST (Met1–Gln157) (domain or fragment, UniProt P07814 1-157, looked up)
chain: MATLSLTVNSGDPPLGALLAVEHVKDDVSISVEEGKENILHVSENVIFTDVNSILRYLARVATTAGLYGSNLMEHTEIDHWLEFSATKLSSCDSFTSTINELNHCLSLRTYLVGNSLSLADLCVWATLKGNAAWQEQLKQKKAPVHVKRWFGFLEAQ
notes: human glutamyl-prolyl-tRNA synthetase (EPRS), GST domain, residues Met1–Gln157; also called GST domain of glutamyl-prolyl-tRNA synthetase; source: E. coli BL21-CodonPlus (DE3)-RIPL; culture pooled with those of the partners, co-purified (HiTrap Chelating HP, Superdex 200); not shown: His6, C-terminal, kept
B1: in data set [1], the binding result is “binds”.

B2: N-terminally truncated human aspartyl-tRNA synthetase (residues Ala21–Pro501) (enzyme, UniProt P14868 21-501, looked up)
chain: AEDYAKERYGISSMIQSQEKPDRVLVRVRDLTIQKADEVVWVRARVHTSRAKGKQCFLVLRQQQFNVQALVAVGDHASKQMVKFAANINKESIVDVEGVVRKVNQKIGSCTQQDVELHVQKIYVISLAEPRLPLQLDDAVRPEAEGEEEGRATVNQDTRLDNRVIDLRTSTSQAVFRLQSGICHLFRETLINKGFVEIQTPKIISAASEGGANVFTVSYFKNNAYLAQSPQLYKQMCICADFEKVFSIGPVFRAEDSNTHRHLTEFVGLDIEMAFNYHYHEVMEEIADTMVQIFKGLQERFQTEIQTVNKQFPCEPFKFLEPTLRLEYCEALAMLREAGVEMGDEDDLSTPNEKLLGHLVKEKYDTDFYILDKYPLAVRPFYTMPDPRNPKQSNSYDMFMRGEEILSGAQRIHDPQLLTERALHHGIDLEKIKAYIDSFRFGAPPHAGGGIGLERVTMLFLGLHNVRQTSMFPRDPKRLTP
notes: human aspartyl-tRNA synthetase (DRS), cytosolic, residues Ala21–Pro501; Homodimer in the crystal structure of the DA2E subcomplex; No removal of the His6 tag is described; also called DRS; source: E. coli Rosetta2 (DE3)pLysS; culture pooled with those of the partners, co-purified (HiTrap Chelating HP, Superdex 200); not shown: His6, N-terminal, kept
For the molecule B2, the binding result in data set [2] is given as “binds”.
